This note sets out measurements from publication PMC9222203, “A Robust Assay to Monitor Ataxin-3 Amyloid Fibril Assembly” (Cells, 2022).

Series [1] concerns the molecule itself.
Series [2] deals with the molecule itself. Description: switchSENSE; His-tagged protein (500 nM) captured on NTA3-functionalised DNA nanolevers; the same protein as analyte at 3.75-15 uM; PBS pH 7.5, 1 mM TCEP, 37 C; static measurement mode; global mono-exponential fits; self-association.

B1: Ataxin-3 Josephin domain (domain or fragment, human, UniProt P54252-2 1-180, looked up)
chain: MESIFHEKQEGSLCAQHCLNNLLQGEYFSPVELSSIAHQLDEEERMRMAEGGVTSEDYRTFLQQPSGNMDDSGFFSIQVISNALKVWGLELILFNSPEYQRLRIDPINERSFICNYKEHWFTVRKLGKQWFNLNSLLTGPELISDTYLALFLAQLQQEGYSIFVVKGDLPDCEADQLLQM
notes: Josephin domain of human ataxin-3 (UniProt P54252-2); A TEV site lies downstream of the His tag; no cleavage described; captured by its His tag in switchSENSE; also called Atx3 JD; JD; source: E. coli BL21(DE3)-SI, purified (Ni2+ IMAC, Sephacryl S-300 SEC); not shown: His6, N-terminal, kept
The Kd is the equilibrium constant for the complex coming apart. Lower therefore signals higher affinity. Take B1: the Kd in series [1] came to 4.6 µM. Further, the binding result in series [2] is listed as “binds”.
